Assay results published in patent publication US20180002444A1 (ROCKEFELLER UNIVERSITY, published 2018).

T1: recombinant human MERTK (human, UniProt Q12866 26-499, limits assumed)
T1 construct: Analyte in solution in biolayer interferometry; also called hMer
T1 sequence: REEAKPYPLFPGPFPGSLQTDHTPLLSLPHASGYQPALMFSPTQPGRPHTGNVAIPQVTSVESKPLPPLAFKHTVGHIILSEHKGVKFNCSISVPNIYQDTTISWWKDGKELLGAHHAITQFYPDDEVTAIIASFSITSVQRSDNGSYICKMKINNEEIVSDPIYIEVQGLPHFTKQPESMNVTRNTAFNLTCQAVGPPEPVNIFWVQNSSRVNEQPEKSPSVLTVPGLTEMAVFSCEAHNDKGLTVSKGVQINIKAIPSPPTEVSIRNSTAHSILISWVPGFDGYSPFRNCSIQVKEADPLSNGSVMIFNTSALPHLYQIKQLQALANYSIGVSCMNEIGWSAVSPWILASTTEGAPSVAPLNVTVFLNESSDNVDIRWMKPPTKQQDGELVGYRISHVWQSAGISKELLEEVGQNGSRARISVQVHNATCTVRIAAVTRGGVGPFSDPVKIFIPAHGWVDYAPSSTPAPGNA


What was measured:
[1] = target: T1, recombinant human MERTK; assay: biolayer interferometry, M19 loaded on AMQ sensor, hMer as analyte, 1:1 model, local fit at 5 nM hMer
Protocol: (§1) FIG. 7: M19 binds to human MERTK with high affinity. A diagram showing antibody binding kinetics for M19 (Mer-M19) against human MERTK (hMer) using biolayer interferometry. Purified M19 was loaded on an AMQ sensor at a concentration of 1 microgram/mL to test binding against analytes in solution. All analytes were prepared at 5 nM with a 2-fold dilution series for a total of 7 concentrations. Kinetic fits were calculated using a 1:1 model, with Local fits for each concentration as well as an overall global fit.

[2] = target: T1, recombinant human MERTK; assay: biolayer interferometry, M6 loaded on AMQ sensor, hMer as analyte, 1:1 model, local fit at 1.25 nM hMer
Protocol: as §1, with “11: M6 binds to MERTK with high affinity. M6” for “7: M19”, “M6 (Mer-M6)” for “M19 (Mer-M19)”, “M6” for “M19”, “Global” for “global”

Kd [1] [nM]	kon [1] [M⁻¹ s⁻¹]	Kd [2] [nM]	koff [2] [s⁻¹]	Binder
0.248	3.83e+06	–	–	antibody M19 (antibody, V domains shown, mouse hybridoma monoclonal antibody; also called Mer-M19) VH: EVQLEESGPDLKKPGETVKISCKASNYTFTDYSMHWVKQAPGKGLKWVGWINTDTGEPTYADDFKGRFAFSLETSASTAYLQINNLKNEDTATYFCARWFGAMDYWGQGTSVTVSS VL: DIVITQSHKFMSTSVGDRVSITCKASQDVTNVVAWYQQKPGQSPKLLIYSASYRYTGVPDRFTGSGSGTDFTFTISSVQAEDLAVYYCQQYYRTPRTFGGGTKLEIKR
–	–	0.048	0.00015	antibody M6 (antibody, V domains shown, mouse hybridoma monoclonal antibody; also called Mer-M6) VH: QVKLEESGPELKKPGETVKISCKASGYTFTNYGMNWVKQAPGKGLKWMGWINTYTGEPTYADDFKGRFVFSLETSASTAYLQINNLKNEDMATYFCARKSTVVSRYFDVWGAGTTVTVSS VL: DIVLTQTHKFMSTSVGDRVSITCKASQDVGDAVTWCQQKPGQPPKLLIYWASTRHTGVPDRFTGSGSGTDFTLTINNVQSEDLADYFCQQYRSYPLTFGAGTKLELKR
